Target: FGF ligands
Assay: cell-based or functional assay

- MTT assay of HUVEC cells (cell growth / metabolic activity): < 50%
B1: FGFR1-CCD fusion protein (protein)
chain: RPSPTLPEQAQPWGAPVEVESFLVHPGDLLQLRCRLRDDVQSINWLRDGVQLAESNRTRITGEEVEVQDSVPADSGLYACVTSSPSGSDTTYFSVNVSDALPSSEDDDDDDDSSSEEKETDNTKPNPVAPYWTSPEKMEKKLHAVPAAKTVKFKCPSSGTPNPTLRWLKNGKEFKPDHRIGGYKVRYATGSIIMDSVVPSDKGNYTCIVENEYGSINHTYQLDVVERSPHRPILQAGLPANKTVALGSNVEFMCKVYSDPQPHIQWLKHIEVNGSKIGPDNLPYVQILKTAGVNTTDKEMEVLHLRNVSFEDAGEYTCLAGNSIGLSHHSAWLTVLEALEERPAVMLKEFMGYQGPPGPPGPPGIPGNHGNNGNNGATGHEGAKGEKGDKGDLGPRGERGQHGPKGEKGYPGIPGYCGPPGPPGPPGIPGNHGNNGNNGATGHEGAKGEKGDKGDLGPRGERGQHGPKGEKGYPGIPDYKDDDDKLQISSTVAAAHHHHHHV

Source: patent US20220324943A1
